Article PMC7156504 (2020)

Target: biotinylated nerve growth factor (NGF) (human, UniProt P01138 122-241, biotin (biotinylated in-house, sites not stated))
Test: FRET; epitope competition with labelled IgGWFL

Sequence of biotinylated nerve growth factor (NGF) (P01138 122-241): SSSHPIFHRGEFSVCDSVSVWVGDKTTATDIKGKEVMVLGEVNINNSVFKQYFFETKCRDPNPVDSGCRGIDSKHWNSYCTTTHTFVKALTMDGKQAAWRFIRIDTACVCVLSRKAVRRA

Binder | IC50 [nM]
evolved scFvWFL variant 130 reformatted as IgG1 (antibody, V domains shown) VH: QVQLVQSGAEVKKPGSSVKVSCKASGGAFWFGAFTWVRQAPGQGLEWMGGITPIFGHTNLAQNFQGRVTITADESTSTVYMELSSLRSEDTAVYYCARSSRIYDLNPSLTAYYDMDVWGQGTMVTVSS VL: QSVLTQPPSVSAAPGQKVTISCSGSSSDIGNNYVSWYQQLPGTAPKLLIYDNNKRPSGIPDRFSGSKSGTSATLGITGLQTGDEADYYCGTWDSSLSAWVFGGGTKLTVL | 2.06
evolved scFvWFL variant 16 reformatted as IgG1 (antibody, V domains shown) VH: QVQLVQSGAEVKKPGSSVKVSCKASGGTFWSGAFTWVRQAPGQGLEWMGGIIPISGLTNLAQNFQGRVTITADESTSTAYMELSSLRSEDTAVYYCARSSRIYDLNPSLTAYYDMDVWGQGTMVTVSS VL: QSVLTQPPSVSAAPGQKVTISCSGSSSDIGNNYVSWYQQLPGTAPKLLIYDNNKRPSGIPDRFSGSKSGTSATLGITGLQTGDEADYYCGTWDSSLSAWVIGGGTKLTVL | 0.935
evolved scFvWFL variant 126 reformatted as IgG1 (antibody, V domains shown) VH: QVQLVQSGAEVKKPGSSVKVSCKASGGTFWFGAFTWVRQAPGQGLEWMGGFIPISGLTNLAQNFQGRVTITADESTSTVYMELSSLRSEDTAVYYCARSSRIYDLNPSLTAYYDMDVWGQGTMVTVSS VL: QSVLTQPPSVSAAPGQKVTISCSGSSSDIGNNYVSWYQQLPGTAPKLLIYDNNKRPSGIPDRFSGSKSGTSATLGITGLQTGDEADYYCGTWDSSLSAWVFGGGTKLTVL | 5.69
evolved scFvWFL variant 128 reformatted as IgG1 (antibody, V domains shown) VH: QVQLVQSGAEVKKPGSSVKVSCKASGGTFWFGAFTWVRQAPGQGLEWMGGIIPIFGLTNLAQNFQGRVTITADESTSTVYMELSSLRSEDTAVYYCARSSRIYDLNPSLTADYDMDVWGQGTMVTVSS VL: QSVLTQPPSVSAAPGQEVTISCSGSSSDIGNNYVSWYQQPPGAAPKLLIYDNNKRPSGIPDRFSGSKSGTSATLGITGLQTGDEADYYCGTWDSSLSAWVFGGGTKLTVL | 1.41
MEDI578 (the parent antibody prior to affinity maturation into MEDI1912) (antibody, V domains shown) VH: QVQLVQSGAEVKKPGSSVKVSCKASGGTFSTYGISWVRQAPGQGLEWMGGIIPIFDTGNSAQSFQGRVTITADESTSTAYMELSSLRSEDTAVYYCARSSRIYDLNPSLTAYYDMDVWGQGTMVTVSS VL: QSVLTQPPSVSAAPGQKVTISCSGSSSNIGNNYVSWYQQLPGTAPKLLIYDNNKRPSGIPDRFSGSKSGTSATLGITGLQTGDEADYYCGTWDSSLSAWVFGGGTKLTVL | 36.8
evolved scFvWFL variant 72 reformatted as IgG1 (antibody, V domains shown) VH: QVQLVQSGAEVKKPGSSVKVSCKASGGTSWFGAFTWVRQAPGQGLEWMGGTIPIFGLTNLAQNFQGRVTITADESTSTVYMELSSLRSDDTAVYYCARSSRIYDLNPSLTAYYDMGVWGQGTMVTVSS VL: QSVLTQPPSVSAAPGQKVTISCSGSSSDIGDNYVSWYQQLPGTAPKLLIYDNNKRPSGIPDRFSGSKSGTSATLGITGLQTGDEADYYCGTWDSSLSAWVFGGGTKLTVL | 1.91

The next binders have a lower IC50 than those just listed; values first:

IC50 [nM] | Binder
0.649 | evolved scFvWFL variant 139 reformatted as IgG1 (antibody, V domains shown) VH: QVQLVQSGAEVKKPGSSVKVSCKAGGGTFWSGAFTWVRQAPGQGLEWMGGIIPIFGLTNLAQNFQGRVTITADESTSTVYMELSSLRSEDTAVYYCARSSRTYDLNPSLTAYYDMDVWGQGTMVTVSS VL: QSVLTQPPSVSAAPGQKVTISCSGSSSDIGNNYVSWYQQLPGTAPKLLIYDNNKRPSGIPDRFSGSKSGTTATLGITGLQTGDEADYYCGTWDSSLSAWVFGGGTKLTVL
0.573 | IgGSTT, variant of MEDI1912 with W35S, F36T and L64T in VH (antibody, V domains shown) VH: QVQLVQSGAEVKKPGSSVKVSCKASGGTFSTGAFTWVRQAPGQGLEWMGGIIPIFGTTNLAQNFQGRVTITADESTSTVYMELSSLRSEDTAVYYCARSSRIYDLNPSLTAYYDMDVWGQGTMVTVSS VL: QSVLTQPPSVSAAPGQKVTISCSGSSSDIGNNYVSWYQQLPGTAPKLLIYDNNKRPSGIPDRFSGSKSGTSATLGITGLQTGDEADYYCGTWDSSLSAWVFGGGTKLTVL
0.363 | IgGWFL (MEDI1912), human IgG1 antibody specific for human nerve growth factor (antibody, V domains shown) VH: QVQLVQSGAEVKKPGSSVKVSCKASGGTFWFGAFTWVRQAPGQGLEWMGGIIPIFGLTNLAQNFQGRVTITADESTSTVYMELSSLRSEDTAVYYCARSSRIYDLNPSLTAYYDMDVWGQGTMVTVSS VL: QSVLTQPPSVSAAPGQKVTISCSGSSSDIGNNYVSWYQQLPGTAPKLLIYDNNKRPSGIPDRFSGSKSGTSATLGITGLQTGDEADYYCGTWDSSLSAWVFGGGTKLTVL
0.251 | evolved scFvWFL variant 11 reformatted as IgG1 (antibody, V domains shown) VH: QVQLVRSGAEVKKPGSSVKVSCKASGGTFWFGAFTWVRQAPGQGLEWMGGIIPIFGLTNLAQNFQGRVTITADESTSTVYMELSSLRSEDTAVYYCARSSRIYDLNPSLAAYYDMDVWGQGTMVTVSS VL: QSVLTQPPSVSAAPGQKVTIPCSGSSSDIGNNYVSWYQQLPGTAPKLLIYDNNKRPSGIPDRFSGSKSGTSATLGVTGLQTGDEADYYCGTWDSSLSAWVFGGGTKLTVL
0.201 | evolved scFvWFL variant 176 reformatted as IgG1 (antibody, V domains shown) VH: QVQLVRSGAEVKKPGSSVKVSCKASGGTFWFGAFTWVRQAPGQGLEWMGGIIPIFGLTNLAQNFQGRVTITADESTSTVYMELSSLRSEDTAVYYCARSSRIYDLNPSLTAYYDMDVWGQGTMVTVSS VL: QSVLTQPPSVSAAPGQKVTISCSGSSSDIGNNYVSWYQQLPGTAPKLLIYDNNKRPSGIPDRFSGSKSGTSATLGITGLQTGDEADYYCGTWDSSLSAWVFGGGTKLTVL
0.177 | evolved scFvWFL variant 59 reformatted as IgG1 (antibody, V domains shown) VH: QVQLVQSGAEVKKPGSSVKVSCKASGGTFRFGAFTWARQAPGQGLEWMGGIIPIFGLTNLAQNFQGRATITADESTSTVYMELSSLRSEDTAVYYCARSSRIYDLNPSLTAYYDMDVWGQGTMVTVSS VL: QSVLTQPPSVSAAPGQKVTISCSGSSSDIGNNYVSWYQQLPGTAPKLLTYDNNKRPSGIPGRFSGSKSGTSATLGITGLQTGDEADYYCGTWDSSLSAWVFGGGTKLTVL
0.136 | evolved scFvWFL variant 37 reformatted as IgG1 (antibody, V domains shown) VH: QVQLVPSGAEVKKPGSSVKVSCKASGGTFWFGAFTWVRQAPGQGLEWMGGIIPTFGLTNLAQNFQGRVTITADESTSTVYMELSSLRSEDTAVYYCARSSRIYDLNPSLTAYYDMDVWGQGTMVTVSS VL: QSVLTQPPSVSAAPGQKVTISCSGPSSDIGNNYVSWYQQLPGTAPKLLIYDNNKRPSGIPDRFSGSKSGTSATLGITGLQTGDEADYYCGTWDSSLSAWVFGGGTKLTVL
